The values that follow come from patent publication US20080057063A1.

In test [1] the target is α5β1 integrin (on K562 cells) (UniProt P08648). Kind of test: cell-based or functional assay.
Test [2] deals with human αV on parental A375M cells, which express αVβ3 and αVβ5, but not αVβ6 (human) (UniProt P06756). Kind of test: cell-based or functional assay.
The target of test [3] is cynomolgus αVβ6 on cells (cynomolgus). Nature of the test: FACS, HEK-293 transfected with cynomolgus αV and β6, day 1. For orientation: A flow cytometer gives signals particle by particle.
In test [4] the target is human αV on parental A375M cells, which express αVβ3 and αVβ5, but not αVβ6 (human) (UniProt P06756). Kind of test: FACS, parental A375M cells, day 1.
Test [5] addresses cynomolgus αVβ6 on cells (cynomolgus). Nature of the test: FACS, HEK-293 transfected with cynomolgus αV and β6, day 2.
The target of test [6] is human αV on parental A375M cells, which express αVβ3 and αVβ5, but not αVβ6 (human) (UniProt P06756). Kind of test: FACS, parental A375M cells, day 2.
In test [7] the target is mouse β6 (HEK-293 cells transfected with mouse β6 alone) (mouse) (UniProt Q9Z0T9). Nature of the test: FACS, HEK-293 transfected with mouse β6.
Sequence of mouse β6 (HEK-293 cells transfected with mouse β6 alone) (mouse) (Q9Z0T9 22-787): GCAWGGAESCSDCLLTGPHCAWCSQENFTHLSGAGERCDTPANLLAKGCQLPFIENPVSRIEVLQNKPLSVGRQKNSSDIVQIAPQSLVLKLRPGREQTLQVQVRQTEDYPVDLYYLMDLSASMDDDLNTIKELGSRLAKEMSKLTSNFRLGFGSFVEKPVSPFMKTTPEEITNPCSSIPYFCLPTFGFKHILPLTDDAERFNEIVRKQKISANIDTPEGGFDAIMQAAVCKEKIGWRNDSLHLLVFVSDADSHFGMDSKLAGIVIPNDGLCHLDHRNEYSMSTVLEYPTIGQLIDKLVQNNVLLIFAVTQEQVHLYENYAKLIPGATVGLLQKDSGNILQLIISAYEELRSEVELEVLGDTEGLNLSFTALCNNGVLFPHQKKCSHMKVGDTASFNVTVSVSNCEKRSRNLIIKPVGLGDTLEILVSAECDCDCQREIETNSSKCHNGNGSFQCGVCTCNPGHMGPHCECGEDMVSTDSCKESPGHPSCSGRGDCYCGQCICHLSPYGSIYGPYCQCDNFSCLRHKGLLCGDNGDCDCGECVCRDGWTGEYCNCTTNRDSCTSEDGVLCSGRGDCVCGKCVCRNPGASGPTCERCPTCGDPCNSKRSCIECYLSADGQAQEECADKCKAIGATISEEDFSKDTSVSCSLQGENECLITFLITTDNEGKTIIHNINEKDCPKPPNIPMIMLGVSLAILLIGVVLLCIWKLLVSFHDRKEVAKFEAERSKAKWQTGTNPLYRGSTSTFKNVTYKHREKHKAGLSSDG
The target of test [8] is cynomolgus αVβ6 on cells (cynomolgus). Kind of test: FACS, HEK-293 transfected with cynomolgus αVβ6.
Test [9] concerns the target mouse αVβ6 on cells (mouse) (UniProt P43406). Kind of test: FACS, HEK-293 transfected with mouse αVβ6.
For test [10], the target named is α4β1 integrin (on J6.77 cells) (UniProt P13612). Kind of test: cell-based or functional assay.
Test [11] has as its target cynomolgus αVβ6 on cells (cynomolgus). Kind of test: FACS, K562 cells expressing cynomolgus αVβ6 (parental 46).
For test [12], the target named is mouse αVβ6 on cells (mouse) (UniProt P43406). Nature of the test: FACS, K562 cells expressing mouse αVβ6 (parental 46).
Sequence of mouse αVβ6 on cells (mouse) (P43406 31-1044, chain 1 of 2): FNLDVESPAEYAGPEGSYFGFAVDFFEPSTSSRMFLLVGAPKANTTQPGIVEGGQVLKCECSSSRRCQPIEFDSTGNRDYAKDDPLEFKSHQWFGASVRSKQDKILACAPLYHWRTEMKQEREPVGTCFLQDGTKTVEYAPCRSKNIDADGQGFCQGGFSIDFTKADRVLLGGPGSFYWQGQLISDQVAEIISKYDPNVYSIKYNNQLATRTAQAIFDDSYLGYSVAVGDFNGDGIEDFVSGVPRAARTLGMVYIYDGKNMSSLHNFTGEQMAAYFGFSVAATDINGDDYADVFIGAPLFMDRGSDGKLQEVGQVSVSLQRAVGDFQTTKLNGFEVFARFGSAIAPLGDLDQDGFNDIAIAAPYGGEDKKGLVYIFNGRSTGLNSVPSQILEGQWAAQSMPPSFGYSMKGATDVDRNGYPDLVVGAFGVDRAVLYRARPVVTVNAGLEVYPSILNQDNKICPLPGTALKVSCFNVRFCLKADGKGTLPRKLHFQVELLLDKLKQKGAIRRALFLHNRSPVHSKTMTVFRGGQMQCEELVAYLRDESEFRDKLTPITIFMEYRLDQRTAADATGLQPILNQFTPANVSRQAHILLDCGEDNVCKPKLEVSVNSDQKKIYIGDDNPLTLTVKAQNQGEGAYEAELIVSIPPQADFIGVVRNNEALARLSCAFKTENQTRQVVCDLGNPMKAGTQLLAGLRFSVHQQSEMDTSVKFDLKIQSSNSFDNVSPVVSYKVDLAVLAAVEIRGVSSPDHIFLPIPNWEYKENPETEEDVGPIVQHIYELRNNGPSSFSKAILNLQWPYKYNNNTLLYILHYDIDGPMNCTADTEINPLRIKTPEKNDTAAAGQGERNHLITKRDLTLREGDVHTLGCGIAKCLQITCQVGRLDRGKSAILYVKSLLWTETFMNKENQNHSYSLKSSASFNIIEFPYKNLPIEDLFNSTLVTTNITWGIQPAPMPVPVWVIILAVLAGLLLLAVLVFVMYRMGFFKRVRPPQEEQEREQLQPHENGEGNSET
Sequence of mouse αVβ6 on cells (mouse) (Q9Z0T9 22-787, chain 2 of 2, further chain): as the sequence (Q9Z0T9 22-787) above
For test [13], the target named is cynomolgus αV (HEK-293 cells transfected with cynomolgus αV alone) (cynomolgus). Kind of test: FACS, HEK-293 transfected with cynomolgus αV.
Test [14] concerns the target cynomolgus β6 (HEK-293 cells transfected with cynomolgus β6 alone) (cynomolgus). Nature of the test: FACS, HEK-293 transfected with cynomolgus β6.
The target of test [15] is mouse αV (HEK-293 cells transfected with mouse αV alone) (mouse) (UniProt P43406). Nature of the test: FACS, HEK-293 transfected with mouse αV.
Sequence of mouse αV (HEK-293 cells transfected with mouse αV alone) (mouse) (P43406 31-1044): as the sequence (P43406 31-1044, chain 1 of 2) above
Test [16] deals with mouse αVβ6 on cells (mouse) (UniProt P43406). Nature of the test: FACS, K562 cells expressing mouse αVβ6 (parental 23).
For test [17], the target named is cynomolgus αVβ6 on cells (cynomolgus). Nature of the test: FACS, K562 cells expressing cynomolgus αVβ6 (parental 23).
Test [18] concerns the target soluble αVβ6 (human) (UniProt P06756). Kind of test: ELISA on coated soluble αVβ6, 1 ug/mL. Background: An ELISA detects its analyte on a solid surface through an enzyme-linked reagent.
Test [19] addresses cynomolgus αVβ6 on cells (cynomolgus). Kind of test: FACS, K562 cells expressing cynomolgus αVβ6 (parental 15).
The target of test [20] is human αVβ6 integrin on cells (human) (UniProt P06756). Kind of test: cell-based or functional assay.
Sequence of human αVβ6 integrin on cells (human) (P06756 31-1048, chain 1 of 2): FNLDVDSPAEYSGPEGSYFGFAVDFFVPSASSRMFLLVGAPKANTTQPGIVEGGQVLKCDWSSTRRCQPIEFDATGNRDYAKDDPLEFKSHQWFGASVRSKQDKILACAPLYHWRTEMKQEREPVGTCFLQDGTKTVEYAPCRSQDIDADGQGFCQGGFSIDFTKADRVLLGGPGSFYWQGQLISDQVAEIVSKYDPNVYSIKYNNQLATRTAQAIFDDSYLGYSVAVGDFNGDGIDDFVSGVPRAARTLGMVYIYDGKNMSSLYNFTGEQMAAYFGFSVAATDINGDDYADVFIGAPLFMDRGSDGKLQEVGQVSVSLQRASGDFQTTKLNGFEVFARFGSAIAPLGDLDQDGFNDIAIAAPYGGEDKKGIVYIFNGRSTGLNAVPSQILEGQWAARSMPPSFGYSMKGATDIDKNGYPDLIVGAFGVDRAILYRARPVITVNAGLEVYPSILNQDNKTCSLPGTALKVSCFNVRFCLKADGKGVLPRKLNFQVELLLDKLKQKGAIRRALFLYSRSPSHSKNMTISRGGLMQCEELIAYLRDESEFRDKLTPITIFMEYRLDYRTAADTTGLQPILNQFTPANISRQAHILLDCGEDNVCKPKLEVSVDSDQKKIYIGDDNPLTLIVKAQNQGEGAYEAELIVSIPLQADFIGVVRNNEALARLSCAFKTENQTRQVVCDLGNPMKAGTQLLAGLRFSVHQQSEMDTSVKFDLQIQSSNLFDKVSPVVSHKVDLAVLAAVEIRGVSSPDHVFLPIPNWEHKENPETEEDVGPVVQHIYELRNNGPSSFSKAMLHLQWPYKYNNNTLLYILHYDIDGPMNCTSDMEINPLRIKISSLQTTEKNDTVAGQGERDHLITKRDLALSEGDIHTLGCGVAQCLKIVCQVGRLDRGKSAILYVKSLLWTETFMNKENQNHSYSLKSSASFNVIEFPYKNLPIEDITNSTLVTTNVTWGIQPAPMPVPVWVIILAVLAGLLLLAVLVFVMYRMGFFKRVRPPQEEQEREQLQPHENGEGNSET
Sequence of human αVβ6 integrin on cells (human) (P18564 22-788, chain 2 of 2, further chain): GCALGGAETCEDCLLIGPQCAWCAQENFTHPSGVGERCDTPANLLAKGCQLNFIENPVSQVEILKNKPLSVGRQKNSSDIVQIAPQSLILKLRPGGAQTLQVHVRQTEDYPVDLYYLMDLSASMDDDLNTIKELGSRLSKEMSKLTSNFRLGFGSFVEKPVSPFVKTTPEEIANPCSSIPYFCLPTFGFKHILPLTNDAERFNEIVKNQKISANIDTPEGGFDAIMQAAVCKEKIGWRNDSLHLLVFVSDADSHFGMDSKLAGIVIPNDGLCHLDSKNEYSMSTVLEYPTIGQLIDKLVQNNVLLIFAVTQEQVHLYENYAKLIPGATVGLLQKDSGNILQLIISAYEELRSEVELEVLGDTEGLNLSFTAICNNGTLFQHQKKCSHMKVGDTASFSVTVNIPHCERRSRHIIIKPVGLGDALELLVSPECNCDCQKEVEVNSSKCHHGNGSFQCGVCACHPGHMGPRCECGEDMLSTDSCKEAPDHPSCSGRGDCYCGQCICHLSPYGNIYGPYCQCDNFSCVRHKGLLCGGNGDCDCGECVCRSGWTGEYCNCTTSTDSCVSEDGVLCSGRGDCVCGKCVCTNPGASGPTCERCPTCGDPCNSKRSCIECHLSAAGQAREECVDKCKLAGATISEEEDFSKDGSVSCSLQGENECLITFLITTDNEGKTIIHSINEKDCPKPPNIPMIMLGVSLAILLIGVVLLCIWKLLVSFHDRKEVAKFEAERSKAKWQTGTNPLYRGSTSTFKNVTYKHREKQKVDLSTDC
For test [21] the target is unchanged. Nature of the test: FMAT, HEK 293 cells overexpressing αVβ6, 1 ug/mL.
Test [22] addresses mouse αVβ6 on cells (mouse) (UniProt P43406). Nature of the test: FACS, K562 cells expressing mouse αVβ6 (parental 15).
For test [23], the target named is cynomolgus αVβ6 on cells (cynomolgus). Kind of test: FACS, K562 cells expressing cynomolgus αVβ6 (parental 12).
The target of test [24] is mouse αVβ6 on cells (mouse) (UniProt P43406). Kind of test: FACS, K562 cells expressing mouse αVβ6 (parental 12).

Sequence of human αV on parental A375M cells, which express αVβ3 and αVβ5, but not αVβ6 (human) (P06756 31-1048 A375M): as the sequence (P06756 31-1048, chain 1 of 2) above, with A345M counted along it

As to Human IgG Isotype Control (antibody), the % Inhibition (K562 adhesion to fibronectin) in test [1] is -12%. This substance also yielded a Percent Inhibition (K562 adhesion to FN9-10 peptide of fibronectin, 5 µg/ml) in [1] of 11%. In addition, the Percent Inhibition (A375M adhesion to osteopontin peptide, 5 µg/ml) in test [2] was found to be 3%. In addition, the % Cells Shifted came out at 1% in test [3], 5% in test [4], 0% in test [5] and 1% in [6]. Besides, the GeoMean amounted to 9.54 in test [3], 1.66 in [4], 7.39 in test [5] and 7.23 in test [6].
In the case of “Mouse IgG2 with Murine Secondary Antibody”, the % Cells Shifted in [3] was 1%; in test [4], 4%; in test [5], 0%; in test [6], 3%. Moreover, the GeoMean in test [3] amounted to 8.85; in test [4], 1.67; in test [5], 11.2; in [6], 11.2.
Turning to Human IgG1 (antibody), the percent of cells shifted in test [7] turned out to be 0%; in test [8], 0%; in test [9] it was 1%; in test [13], 1%; in test [14], 1%; in test [15], 1%. The Percent Inhibition (J6.77 adhesion to CS-1 peptide of fibronectin, 5 ug/ml) in [10] is 26%. Also, the Geometric Mean Shift in test [11] was found to be 54; in test [12], 108.
Regarding Mouse IgG2a (antibody), the Geometric Mean Shift in test [16] is 36; in [17] it was 25.
Substance “murine αVβ6 antibody (Cat#MAB2077z, Chemicon)” showed an ELISA OD in [18] of 6. Also, the percent of cells shifted was determined as 11% in [7]; 20% in test [8]; 45% in test [9]; 0% in [13]; 5% in test [14]; 1% in [15]. Also, the Geometric Mean Shift in test [19] came to 84; in test [22], 122. Besides, the Estimated IC50, n = 1 (HT29 adhesion to TGFβLAP) in test [20] is 226 ng/mL. Also, the Estimated IC50, n = 2 (HT29 adhesion to TGFβLAP) in [20] was 185 ng/mL. In [20], the Estimated IC50, n = 3 (HT29 adhesion to TGFβLAP) is 286 ng/mL. Besides, the % Cells Shifted in test [3] was found to be 42%; in [4], 30%; in test [5], 11%; in [6], 5%. Further, the GeoMean in test [3] was determined as 55.5; in [4], 2.03; in [5] it was 28.1; in test [6], 15.4. The FMAT Count in [21] turned out to be 67. The FMAT FL1 in [21] was found to be 659. The substance also came in with an FMAT FL1 × Count in test [21] of 44200.
For the substance Human IgG2 (antibody), the Percent Inhibition (J6.77 adhesion to CS-1 peptide of fibronectin, 5 ug/ml) in test [10] came to 13%.
On to Mouse IgG1 (antibody), for which the Geometric Mean Shift in test [23] came out at 13; in [24], 20.
Substance Human IgG4 (antibody) had a Percent Inhibition (J6.77 adhesion to CS-1 peptide of fibronectin, 5 ug/ml) in [10] of 15%.
Turning to Mouse IgG Control (antibody), the Percent Inhibition (A375M adhesion to osteopontin peptide, 5 µg/ml) in test [2] was found to be 5%.
